In paper doi:10.1101/798769:

Target: NANP 5.5-mer peptide, NP(NANP)5 (Plasmodium falciparum)
Test: SPR

fold lower affinity (reference not clear: its own NPDP affinity or mAb 4493): 100 fold
Substance: mAb CIS43 (recombinant human IgG1, kappa) (antibody)
